Test results published in IntAct's records for PubMed 18560563.

B1: Bifunctional UDP-N-acetylglucosamine 2-epimerase/N-acetylmannosamine kinase (Homo sapiens), Q9Y223 (parent)
chain: MEKNGNNRKLRVCVATCNRADYSKLAPIMFGIKTEPEFFELDVVVLGSHLIDDYGNTYRMIEQDDFDINTRLHTIVRGEDEAAMVESVGLALVKLPDVLNRLKPDIMIVHGDRFDALALATSAALMNIRILHIEGGEVSGTIDDSIRHAITKLAHYHVCCTRSAEQHLISMCEDHDRILLAGCPSYDKLLSAKNKDYMSIIRMWLGDDVKSKDYIVALQHPVTTDIKHSIKMFELTLDALISFNKRTLVLFPNIDAGSKEMVRVMRKKGIEHHPNFRAVKHVPFDQFIQLVAHAGCMIGNSSCGVREVGAFGTPVINLGTRQIGRETGENVLHVRDADTQDKILQALHLQFGKQYPCSKIYGDGNAVPRILKFLKSIDLQEPLQKKFCFPPVKENISQDIDHILETLSALAVDLGGTNLRVAIVSMKGEIVKKYTQFNPKTYEERINLILQMCVEAAAEAVKLNCRILGVGISTGGRVNPREGIVLHSTKLIQEWNSVDLRTPLSDTLHLPVWVDNDGNCAALAERKFGQGKGLENFVTLITGTGIGGGIIHQHELIHGSSFCAAELGHLVVSLDGPDCSCGSHGCIEAYASGMALQREAKKLHDEDLLLVEGMSVPKDEAVGALHLIQAAKLGNAKAQSILRTAGTALGLGVVNILHTMNPSLVILSGVLASHYIHIVKDVIRQQALSSVQDVDVVVSDLVDPALLGAASMVLDYTTRRIY

Variants of: B1
Conditions: with actn1_human ACTN1, P12814
Sequence of actn1_human ACTN1, P12814 (P12814 whole entry): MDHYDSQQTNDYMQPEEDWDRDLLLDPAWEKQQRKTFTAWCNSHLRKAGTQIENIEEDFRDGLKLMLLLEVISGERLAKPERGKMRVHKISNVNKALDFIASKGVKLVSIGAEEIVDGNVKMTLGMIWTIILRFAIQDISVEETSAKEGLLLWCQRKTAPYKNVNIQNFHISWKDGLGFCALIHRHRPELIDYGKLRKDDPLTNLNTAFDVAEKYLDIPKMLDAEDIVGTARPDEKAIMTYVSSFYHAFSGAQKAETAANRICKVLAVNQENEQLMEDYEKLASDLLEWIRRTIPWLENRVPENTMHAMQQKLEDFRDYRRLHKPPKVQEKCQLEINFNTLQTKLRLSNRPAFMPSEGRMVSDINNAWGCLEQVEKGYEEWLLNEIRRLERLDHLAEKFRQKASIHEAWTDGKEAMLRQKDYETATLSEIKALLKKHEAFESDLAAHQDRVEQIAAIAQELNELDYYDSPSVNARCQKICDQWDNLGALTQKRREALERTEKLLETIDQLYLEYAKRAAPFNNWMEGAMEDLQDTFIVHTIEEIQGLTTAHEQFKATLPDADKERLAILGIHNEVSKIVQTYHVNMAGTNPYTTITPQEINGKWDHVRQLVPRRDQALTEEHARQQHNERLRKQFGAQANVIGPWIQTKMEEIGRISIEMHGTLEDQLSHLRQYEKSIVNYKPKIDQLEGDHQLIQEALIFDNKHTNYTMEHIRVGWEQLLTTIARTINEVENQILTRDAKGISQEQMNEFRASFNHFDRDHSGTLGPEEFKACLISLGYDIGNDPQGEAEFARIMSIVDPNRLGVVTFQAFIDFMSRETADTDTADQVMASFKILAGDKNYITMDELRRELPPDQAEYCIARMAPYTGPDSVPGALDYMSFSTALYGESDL

| effect of a mutation on the interaction | Variant |
| --- | --- |
| with no effect | M712T |
